These results are taken from patent KR20190060702A (dated 2019).

For this assay, the target named is T1, 사람 ICAM4 (intercellular adhesion molecule 4) (human, UniProt Q14773 31-271).
T1 construct: whole, on cells; Always on cells that carry it naturally; no recombinant ICAM4 was used; also called CD242; 1E1 항원
T1 sequence (looked up): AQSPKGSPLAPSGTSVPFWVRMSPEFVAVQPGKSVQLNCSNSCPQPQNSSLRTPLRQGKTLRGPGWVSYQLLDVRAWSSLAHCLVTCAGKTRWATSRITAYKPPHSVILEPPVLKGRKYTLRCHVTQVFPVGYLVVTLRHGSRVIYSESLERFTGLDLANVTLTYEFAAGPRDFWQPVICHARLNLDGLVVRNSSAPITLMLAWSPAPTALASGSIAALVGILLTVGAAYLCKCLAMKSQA
Briefly: binding affinity compared with the chimeric antibody (Fig. 5).

B1: 항-ICAM4 인간화항체 VH2A 및 VL2C의 조합 (antibody, V domains shown)
VH: QVQLVESGGGLVKPGGSLRLSCAVSGFSLTDYGVGWIRQAPGKGLEWLGVMWGGGRTYYNAPVKSRLTISKDNAKNSVYLQMNSLRAEDTAVYYCVKTGQDYAVDYWGQGTLVTVSS
VL: EIVLTQSPATLSLSPGERATLSCRASKSVSKYLAWYQEKPGQANRLLIYSGSTLQSGIPARFSGSGSGTDFTLTISSLEPEDFAVYYCQQHNVYPWTFGQGTKVEIK
notes: also called VH2A/VL2C
B1: the binding result is “binds”.
